In patent US20120041056A1, “NUCLEIC ACIDS SPECIFICALLY BINDING WITH HUMAN FACTOR VII/VIIA AND USES THEREOF” (LFB BIOTECHNOLOGIES, published 2012):

What was measured:
[1] = target: T1, Factor VII/VIIa (FVII HP, plasma-derived) (Homo sapiens, UniProt P08709;P08709 P08709:61-212,P08709:213-466); test: SPR; aptamer immobilized; 50 mM Tris, 50 mM NaCl, 10 mM CaCl2, 4 mM MgCl2, pH 7.4; about 1:1 stoichiometry (Example 4); conditions: tags: none; purified from human plasma (98-99% purity); label: 5'-biotin
[2] = target: Factor VII, recombinant rabbit (Oryctolagus cuniculus, UniProt P98139;P98139 P98139:40-191,P98139:192-444); test: SPR; no binding to rabbit FVII/VIIa; conditions: label: 5'-biotin
Procedure: Each sample was injected sequentially onto the same chip (solid substrate) containing the Mapt2 aptamer immobilized by means of a biotin-streptavidin interaction. Controls are obtained by injecting blanks containing only running buffer. Signals corresponding to the background noise are obtained by injecting the same samples onto the reference cell containing the immobilized some nucleic acids or other, these signals are subtracted from the signals obtained on the active cell. All the injections were carried out with a flow rate of 30 μl/min for 60 sec; after the injection, running buffer was injected onto the chip at an identical flow rate, for 120 sec. Elution buffer (15 mM EDTA) was then injected for 30 sec with a flow rate of 30 μl/min in order to detach the human or rabbit FVII from the aptamer. The chip makes it possible to study, in real time, the formation and the breaking of the interactions between the FVII HP and the immobilized aptamer by means of surface plasmon resonance (SPR). Binding to the immobilized aptamer is reflected by an increase in the signal, in resonance units (RU), recorded by the apparatus (FIG. 8). These analyses are carried out with the RPS Biacore T100 apparatus (GE).
The modeling of the interactions recorded is carried out using the Biaevaluation software (GE).

[3] = target: Factor VII, rabbit plasma (hydroxyapatite eluate) (Oryctolagus cuniculus, UniProt P98139;P98139 P98139:40-191,P98139:192-444); test: pulldown; affinity chromatography; 0.2% step yield in eluate, rabbit FVII not retained; conditions: tags: enriched from rabbit plasma; label: 5'-biotin
Procedure: Gel equilibration: 0.050 M Tris-HCl, 0.010 M CaCl₂, 0.05 mM […], pH 7.5, elution: 0.050 M Tris-HCl, 0.010 M EDTA, pH 7.5, 36 μg are injected into the gel with a contact time of 10 minutes. The elution is carried out by injecting 2 ml of elution buffer.
The fractions are analyzed for their amidolytic activity by chromogenic assay using a Stago kit according to the supplier's recommendations (factor VIIa StatClot kit). The amidolytic activity is then converted to pg of FVII contained in said fraction.

[4] = target: T1, Factor VII/VIIa (FVII HP, …); test: SPR; FVII immobilized; 10 mM CaCl2, 4 mM MgCl2, pH 7.4; eluted by 5 mM EDTA; conditions: tags: none; purified from human plasma (98-99% purity)
Procedure: Each sample was injected sequentially onto the same chip (solid substrate) containing the immobilized human FVII. Controls were obtained by injecting blanks containing only running buffer. All the injections were carried out with a flow rate of 30 μl/min for 60 sec; after the injection, running buffer was injected onto the chip at an identical flow rate, for 120 sec. Elution buffer (5 mM EDTA) was then injected for 60 sec with a flow rate of 30 μl/min in order to detach the […]. The chip makes it possible to study, in real time, the formation and the breaking of the interactions between the immobilized human FVII and each of the aptamers Mapt2, Mapt3 and Mapt7 tested, by means of surface plasmon resonance (SPR). Binding to the immobilized human FVII is reflected by an increase in the signal, in resonance units (RU), recorded by the apparatus (FIG. 2). These analyses are carried out with the RPS Biacore T100 apparatus (GE). The modeling of the interactions recorded is carried out using the Biaevaluation software (GE).

[5] = target: T1, Factor VII/VIIa (FVII HP, …); test: SPR; FVII immobilized, aptamer 1 uM; much higher affinity than other family 2 members; 10 mM CaCl2, 4 mM MgCl2, pH 7.5; conditions: tags: none; purified from human plasma (98-99% purity)
Procedure: A series of 27 nucleic aptamers of the invention (purity: 99%), having a length ranging from 43 to 66 nucleotides depending on the aptamers, were diluted in running buffer (50 mM Tris, 50 mM NaCl, 10 mM CaCl₂, 4 mM MgCl₂, pH 7.5) so as to obtain three aptamer samples. Each aptamer tested was injected at a final concentration of 1 μM in the running buffer.
Each sample was injected sequentially onto the same chip (solid substrate) containing the immobilized human FVII. Controls are obtained by injecting blanks containing only running buffer. All the injections were carried out with a flow rate of 30 μl/min for 60 sec; after the injection, running buffer was injected onto the chip at an identical flow rate, for 120 sec. Elution buffer (5 mM EDTA) was then injected for 60 sec with a flow rate of 30 μl/min in order to detach the aptamer from the immobilized human FVII. The chip makes it possible to study, in real time, the formation and the breaking of the interactions between the immobilized human FVII and each of the aptamers tested, by means of surface plasmon resonance (SPR). Binding to the immobilized human FVII is reflected by an increase in the signal, in resonance units (RU), recorded by the apparatus (figure E1). These analyses are carried out with the RPS Biacore T100 apparatus (GE). The modeling of the interactions recorded is carried out using the Biaevaluation software (GE).

[6] = target: T1, Factor VII/VIIa (FVII HP, …); test: pulldown; affinity chromatography on streptavidin gel; CaCl2/MgCl2 buffer pH 7.5, eluted with 10 mM EDTA; Mapt2 core in low affinity group by SPR (Example 11); conditions: tags: none; purified from human plasma (98-99% purity); label: 5'-biotin
Procedure: Gel equilibration: 0.050 M Tris-HCl, 0.010 M CaCl₂, 0.05 mM MgCl₂, pH 7.5, elution: 0.020 M Tris-HCl, 0.010 M EDTA, pH 7.5, 240 μg of human plasma FVII purified to 98% is injected with a flow rate of 0.5 ml/min in equilibration buffer.

B1: Mapt2 (biotin-PEG) (ssDNA)
DNA: GGGAGATAGCCACGACCTATGCAGCCAGCCGCAGTGTAAGTGAATGCAGACATGGTCTAAGTGTCCAGGCTGTGCGAAAGC
modifications: 5' spacer of 4 PEG(C18) and terminal biotin
In the case of B1, the Kd [1] is reported as 99.9 nM, the binding result [2] is reported as “no binding” and the binding result [3] is reported as “no binding”.

B2: Mapt2 (ssDNA)
DNA: B1 DNA
B2: binds [4].

CCGGAGACGCGCAGCTCCTATACATGCGCACATGACTTGAAGTC (ssDNA) [Mapt3]: binds [4].

AGTCTCCATGTTGCGAACCGAATGGTAAGGGGATCGTACACTAC (ssDNA) [Mapt7]: binds [4].

CCGCACGCTACGCGCATGAACCCGCGCACACGACTTGAAGTAGC (ssDNA) [Mapt2.2 core sequence]: binds [5].

CCGCACACCACGCGCATAATCCCGCGCACACGACTTGAAGTAGC (ssDNA, 5'-biotin without spacer) [Mapt-2 core (5'-biotin)]: binds [6].
